This note sets out measurements from patent US20150078996A1 (Merck Sharp & Dohme, published 2015).

Usually IC50 stands for the concentration needed to halve the response being measured.

Assay [1] deals with IR (insulin receptor) expressed on baculovirus-infected Sf9 insect cells (UniProt P06213). Briefly: flow cytometry on Sf9 cells expressing IR, secondary antibody alone. (A flow cytometer gives signals particle by particle.)
Assay [2] has as its target IGF-IR expressed on baculovirus-infected Sf9 insect cells (UniProt P08069). Briefly: flow cytometry on Sf9 cells expressing IGF-IR, secondary antibody alone.
The target of assay [3] is IR (insulin receptor) expressed on baculovirus-infected Sf9 insect cells (UniProt P06213). Briefly: flow cytometry on Sf9 cells expressing IR.
Assay [4] addresses IGF-IR expressed on baculovirus-infected Sf9 insect cells (UniProt P08069). The experiment in a line: flow cytometry on Sf9 cells expressing IGF-IR.
In assay [5] the target is recombinant human IGF-1R extracellular domains (R&D Systems) (human) (UniProt P08069). Briefly: SPR Biacore X, 5 min injection of 8.24 µg/ml over 439 RU of amine-coupled soluble IGF-1R.
The target in assay [6] is full length hIGF-1R from membrane extracts of NIH 3T3 cells overexpressing IGF-1R (human) (UniProt P08069). The experiment in a line: displacement of 125I-IGF-1 from hIGF-1R captured on FlashPlate. In general terms: Loss of bound radioactivity is the signal in a displacement assay; it reports binding, not function.
The target in assay [7] is T1, IR (insulin receptor) expressed on baculovirus-infected Sf9 insect cells (UniProt P06213 28-1382, limits assumed).
T1 construct: whole, on cells; also called IR + cells
The experiment in a line: flow cytometry on Sf9 cells expressing IR.

Assay [8] addresses T2, IGF-IR expressed on baculovirus-infected Sf9 insect cells (UniProt P08069 31-1367, limits assumed).
T2 construct: whole, on cells; also called IGF-1R + cells
The experiment in a line: flow cytometry on Sf9 cells expressing IGF-IR.

Assay [9] concerns the target T3, recombinant human insulin receptor (IR) extracellular domains (R&D Systems) (human, UniProt P06213-2 28-944, limits assumed).
T3 construct: extracellular domain; also called IR ECD
The experiment in a line: western blot after SDS-PAGE, 12B1 as probe. (In general: Immunoblotting shows a protein as a band on a membrane.)
Procedure: Proteins were analyzed by SDS-PAGE electrophoresis on Criterion 7% homogeneous polyacrylamide gels (BioRad, Marnes la Coquette, France) under reducing and non-reducing conditions. Equivalent quantities of 4, 20 and 100 ng were loaded for pure recombinant IR and IGF-1R ECD whereas higher protein quantities, from 0.2 to 6 μg, were needed for membrane extracts to detect IGF-1R by western blot. Proteins were transferred onto nitrocellulose membrane. […] Proteins were further detected by chemiluminescence (ECL, Amersham Biosciences, Orsay, France) after incubation with a horseradish peroxidase-conjugated anti-mouse IgG polyclonal antibody (Amersham Biosciences, 1:3,000 dilution) for 1 h at room temperature and extensive washes.

Assay [10] addresses T1, IR (insulin receptor) expressed on …. The experiment in a line: flow cytometry on Sf9 cells expressing IR. From the text: At this stage of the selection process, only hybridomas secreting monoclonal antibodies that recognized both the recombinant and the native receptors were selected, cloned, produced and then purified before being tested by FACScan analysis, according to the method described above, on Sf9 insect cells expressing either IGF-IR or IR in order to eliminate hybridomas recognizing both the two receptors.
This is another data set of the same source.

Assay [11] addresses recombinant human IGF-1R extracellular domains (R&D Systems) (human) (UniProt P08069). Briefly: SPR Biacore X, 5 min injection of 7.4 µg/ml over 439 RU of amine-coupled soluble IGF-1R.

On to “secondary anti-species antibody coupled to a fluorochrome (Anti-Mouse FITC)”, for which the MFI in [1] is 13; in assay [2], 9.
Consider “commercially available anti-IGF-1R antibody αIR3”, for which the results for the MFI in assay [3] and in assay [4] were 32 and 35, respectively.

B1: mouse monoclonal antibody 7C10 (anti-IGF-1R) (antibody, from another filing, V domains shown)
VH: DVQLQESGPGLVKPSQSLSLTCSVTGYSITGGYLWNWIRQFPGNKLEWMGYISYDGTNNYKPSLKDRISITRDTSKNQFFLKLNSVTNEDTATYYCARYGRVFFDYWGQGTTLTVSS
VL: DVLMTQIPLSLPVSLGDQASISCRSSQSIVHSNGNTYLQWYLQKPGQSPKLLIYKVSNRLYGVPDRFSGSGSGTDFTLKISSVEAEDLGVYYCFQGSHVPWTFGGGTKLEIK
As to B1, the response (RU) in assay [5] was 180 RU. This molecule also displayed an IC50 in assay [6] of 0.2 nM.

B2: monoclonal antibody 2D10 (antibody, V domains shown)
VH: EVNLVESGGILVKPGGSLRLSCAASGFTFSNYAMSWVRQTPEKRLEWVASIGSAGYIHYPDSVKGRFTISRDNARNILYLQMSSLRSEDTAMYYCAREGGLVWFAYWGQGTLVTVSA
VL: ETTVTQSPASLSVATGEKVTIRCITSTDIDDDMNWYQQKPGEPPKLLISEGNTLRPGVPSRFSSSGYGTDFVLTIENTLSEDVADYYCLQSDKMPLTFGAGTKLELK
As to B2, the MFI in assay [7] was 10.6; in assay [8], 42.5.

B3: monoclonal antibody 12D5 (antibody, V domains shown)
VH: QVQLKESGPGLVAPSQSLSITCTVSGFSLNEYGVSWIRQPPGKGLEWLGVIWGGRDTYYHSPLKSRLSITKDNSKSQVFLKMNSLQTDDTAMYYCAKHEGMDYWGQGTSVTVSS
VL: DIVMTQSQKFMSTSVGDRVSVTCKASQNVVTNVAWYQHKPGHSPKPLIYSASYRYSGVPDRFTGSGSGTDFTLTINNVQSEDLAEYFCHQYNNFPLTFGAGTKLELK
For B3, the MFI in assay [7] is 10.6; in assay [8], 50.

B4: mouse monoclonal antibody 12B1 (anti-IGF-1R) (antibody, mouse IgG1, V domains shown)
VH: QVQLKESGPDLVAPSQSLSITCTVSGFSLTNYGVHWVRQFPGKGLEWLGVIWAGGNTNYNSALMSRLTISKDNSKSQVFLKMNSLQTDDTAVYYCAREYGSTYVAWFAHWGQGTLVTVSS
VL: ENVLTQSPAIMSASPGEKVTMTCGASSSVSSSFLHWYQQKSGASPKLWIYSTSNLASGVPTRFSGSGSGTSYSLTISSVEAEDAATYYCQQYSGYPLTFGAGTKLELK
notes: also called MAb 12B1; clone 12B1
Turning to B4, the MFI in assay [7] came to 10.5; in assay [8], 54. Also, the values for the binding result in assay [9] and in assay [10] were “no binding (tested: 100 ng per lane)” and “no binding”, respectively. The response (RU) in assay [11] worked out at 146 RU.
